In US20220324957A1 (OPSIDIO, published 2022):

B1: humanized 5H10 VH3/VK3 (antibody, human IgG4, V domains shown)
VH: QVQLVQSGAEVKKPGSSVKVSCKSSGYAFSSYWMNWVRQRPGQGLEWIGQIYPGDGDTHYNGKFKGKATLTADKSTSTAYMELSSLRSEDTAVYFCSSSNWVGSYWGQGTLVTVSS
VL: DVVMTQSPLSLPVTLGQPASISCKSSQSLLESDGKTYLNWLQQRPGQSPRRLIYLVSRLDSGVPDRFSGSGSGTDFTLKISRVEAEDVGVYYCWQGTHLPQTFGGGTKVEIK
notes: Only variable domains are tied to the name; Humanized from the chimeric antibody, which has a human IgG4 backbone and a kappa light chain
B2: humanized 5H10 VH4/VK3 (antibody, human IgG4, V domains shown)
VH: QVQLVQSGAEVKKPGSSVKVSCKSSGYAFSSYWMNWVRQRPGQGLEWIGQIYPGDGDTHYNGKFKGRVTITADKSTSTAYMELSSLRSEDTAVYFCSSSNWVGSYWGQGTLVTVSS
VL: DVVMTQSPLSLPVTLGQPASISCKSSQSLLESDGKTYLNWLQQRPGQSPRRLIYLVSRLDSGVPDRFSGSGSGTDFTLKISRVEAEDVGVYYCWQGTHLPQTFGGGTKVEIK
notes: as for B1
B3: humanized 5H10 VH1/VK3 (antibody, human IgG4, V domains shown)
VH: QVQLVQSGAELKKPGSSVKISCKSSGYAFSSYWMNWVKQRPGQGLEWIGQIYPGDGDTHYNGKFKGKATLTADKSTSTAYMELSSLTSEDSAVYFCSSSNWVGSYWGQGTLVTVSS
VL: DVVMTQSPLSLPVTLGQPASISCKSSQSLLESDGKTYLNWLQQRPGQSPRRLIYLVSRLDSGVPDRFSGSGSGTDFTLKISRVEAEDVGVYYCWQGTHLPQTFGGGTKVEIK
notes: as for B1
B4: 5H10 VH0/VK0 (chimeric) (antibody, V domains shown)
VH: QVQLQQSGAELVRPGSSVKISCKSSGYAFSSYWMNWVKQRPGQGLEWIGQIYPGDGDTHYNGKFKGKATLTADKSSSTAYMQLSRLTSEDSAVYFCSSSNWVGSYWGQGTLVTVSA
VL: not shown
notes: also called chimeric 5H10
B5: humanized 5H10 VH4/VK2 (antibody, human IgG4, V domains shown)
VH: QVQLVQSGAEVKKPGSSVKVSCKSSGYAFSSYWMNWVRQRPGQGLEWIGQIYPGDGDTHYNGKFKGRVTITADKSTSTAYMELSSLRSEDTAVYFCSSSNWVGSYWGQGTLVTVSS
VL: DVVMTQSPLSLPVTLGQPASISCKSSQSLLESDGKTYLNWLQQRPGQSPRRLIYLVSRLDSGVPDRFTGSGSGTDFTLKISRVEAEDVGVYYCWQGTHLPQTFGGGTKVEIK
notes: as for B1
B6: humanized 5H10 VH2/VK3 (antibody, human IgG4, V domains shown)
VH: QVQLVQSGAEVKKPGSSVKISCKSSGYAFSSYWMNWVKQRPGQGLEWIGQIYPGDGDTHYNGKFKGKATLTADKSTSTAYMELSSLRSEDTAVYFCSSSNWVGSYWGQGTLVTVSS
VL: DVVMTQSPLSLPVTLGQPASISCKSSQSLLESDGKTYLNWLQQRPGQSPRRLIYLVSRLDSGVPDRFSGSGSGTDFTLKISRVEAEDVGVYYCWQGTHLPQTFGGGTKVEIK
notes: as for B1
B7: humanized 5H10 VH3/VK2 (antibody, human IgG4, V domains shown)
VH: QVQLVQSGAEVKKPGSSVKVSCKSSGYAFSSYWMNWVRQRPGQGLEWIGQIYPGDGDTHYNGKFKGKATLTADKSTSTAYMELSSLRSEDTAVYFCSSSNWVGSYWGQGTLVTVSS
VL: DVVMTQSPLSLPVTLGQPASISCKSSQSLLESDGKTYLNWLQQRPGQSPRRLIYLVSRLDSGVPDRFTGSGSGTDFTLKISRVEAEDVGVYYCWQGTHLPQTFGGGTKVEIK
notes: as for B1
B8: murine 5H10 antibody (antibody, V domains shown)
VH: QVQLQQSGAELVRPGSSVKISCKSSGYAFSSYWMNWVKQRPGQGLEWIGQIYPGDGDTHYNGKFKGKATLTADKSSSTAYMQLSRLTSEDSAVYFCSSSNWVGSYWGQGTLVTVSA
VL: not shown
notes: Mouse hybridoma monoclonal with a kappa light chain; It was conjugated to a fluorescent marker for flow cytometry and to pHrodo red for the internalisation assay; also called OpSCF; m5H10

Biological target: T1, human stem cell factor isoform SCF248 (hSCF248) (human, UniProt P21583 26-273)
T1 construct: also called soluble SCF
T1 sequence (P21583 26-273 limits assumed): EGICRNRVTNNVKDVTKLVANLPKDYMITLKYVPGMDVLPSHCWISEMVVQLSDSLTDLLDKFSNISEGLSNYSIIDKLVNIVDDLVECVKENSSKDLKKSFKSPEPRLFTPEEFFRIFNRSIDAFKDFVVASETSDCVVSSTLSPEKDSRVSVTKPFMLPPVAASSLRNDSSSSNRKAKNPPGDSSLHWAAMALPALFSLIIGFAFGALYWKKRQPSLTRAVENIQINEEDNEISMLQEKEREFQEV
Test: binding score on Sl/Sl4 hSCF248 cells

Binding result, binds:
B1
B2
B3
B4
B5
B6
B7

Biological target: T1, human stem cell factor isoform SCF248 …
Test: flow cytometry, directly labelled antibody on Sl/Sl4 hSCF248 cells
Protocol: Binding of the labeled antibody to the cells was assessed by flow cytometry.

Binding result, binds:
B8
